Assay results as given in the DeepSol protein solubility set.

Assay: soluble on expression in E. coli; label from the status in PepcDB or PDB records
In the case of “DATWLPPSRWDDGIPGLMLDYNLNGTVSRNYQGGDSHQFSYNGTVGGNLGPWRLRADYQGSQEQSRYNGEKTTNRNFTWSRFYLFRAIPRWRANLTLGENNINSDIFRSWSYTGASLESDDRMLPPRLRGYAPQITGIAETNARVVVSQQGRVLYDSMVPAGPFSIQDLDSSVRGRLDVEVIEQNGRKKTFQVDTASVPYLTRPGQVRYKLVSGRSRGYGHETEGPVFATGEASWGLSNQWSLYGGAVLAGDYNALAAGAGWDLGVPGTLSADITQSVARIEGERTFQGKSWRLSYSKRFDNADADITFAGYRFSERNYMTMEQYLNARYRNDYSSREKEMYTVTLNKNVADWNTSFNLQYSRQTYWDIRKTDYYTVSVNRYFNVFGLQGVAVGLSASRSKYLGRDNDSAYLRISVPLGTGTASYSGSMSNDRYVNMAGYTDTFNDGLDSYSLNAGLNSGGGLTSQRQINAYYSHRSPLANLSANIASLQKGYTSFGVSASGGATITGKGALVPR”, the “soluble on expression in E. coli” value is reported as “soluble”.
For “DCSPLSLLFGHSDAVVQALYSNNPVLHCLNSALAQTAKALAGTRRDLRVLEVGAGTGATTRHLLPMLEEHLSEYRFTDVSNLFLTQAQEHFAAWPQLTCSMLDVNQPVDFSQHPAQGYDLVVAVNVMHDAAHVTRSLKRLHRLLRSGGHLLLLEATERDSALQLASIGFIEGLSNFEDERSEDDKAMLDLPRWRTAVQASGFSWVMNWPQQADDSM”, the “soluble on expression in E. coli” value was “not soluble”.
For “DDGDCKNIYRYSPKDGKFEKLNLETDVTSAFALSEYNPGIAAYIGQSDYNAGVAYLYDMKKKTSSLLADPMKPILEKIELGKTEPWNFTASDGTVITGKMCLPPNFDPNKKYPMIVYYYGGTTPTTRGISNPYCAQLFASRDYVVYVIQPSGTIGFGQEFSARHVNAWGKRTADDIIEGTKQFCKEHPFVDEKKIGCLGASYGGFMTQYLQTQTDIFAAAVSHAGISDVTSYWGEGYWGYSYNAIAAADSYPWKDPDLFTKQGSLFNADKINTPLLLLHGTVDTNVPIGESIQLFNALKILGKTVEFVTVDGENHFISDYDKRIKWHNSIMAWFARWLQ”, the “soluble on expression in E. coli” value was “not soluble”.
For “DEPNQPSTPEAVTKTVTIDASKYETWQYFSFSKGEVVNVTDYKNDLNWDMALHRYDVRLNCGESGKGKGGAVFSGKTEMDQATTVPTDGYTVDVLGRITVKYEMGPDGHQMEYEEQGFSEVITGKKNAQGFASGGWLEFSHGPAGPTYKLSKRVFFVRGADGNIAKVQFTDYQDAELKKGVITFTYTYPVK”, the “soluble on expression in E. coli” value was “soluble”.
For “DHLHVIGDIYDRGPAPDKIMDRLMSYHSLDIQLGNHDMIWLAAYSGSLACLANVVRICARYGNLDLLEERYAIDLTALKKFSLETYKENPAFAPKKNPYRALTEAEKQVAMRVQQAIAIIQEKLEGQIIGRRPDFNLAHRLRLDKIQGETITFDECRYTLINSCFQTVSEEQPYQLTREEKQIIDDLLTQFQSSPRLTKHMRFLMEKASLYLVYNQNLLIHGCLPLNADGTFQAYTFKGHSYSGKALVDFFQEMLEEAYAQPASTDDYATDCLWYLWCGEGSSLFGKRAMKTFERYFLAEKETHYEEKNPYYSLRDTVEVCERILDEFEVTGENRHIINGHTPVKRTKGESPIKANGTLLVIDGGFSKSYQTITGIAGYTLLYNS”, the “soluble on expression in E. coli” value was “not soluble”.
For “DIELTQTPVSLSASVGETVTITCRASENIYSYLAWYQQKQGKSPQFLVYNAKTLGEGVPSRFSGSGSGTQFSLKINSLLPEDFGSYYCQHHYGTPPLTFGGGTKLEIKREQKLISEEDLM”, the “soluble on expression in E. coli” value was “soluble”.
For “DIGCYTLGIQSGTVETTLCMGSSISIASGLYHAGEKRPICCSIGDSTFFHTGMNSLLNAVFNKANITVTILDNRITAMTGHQPNPGVGFTVTGEPTVEVSLAELCKAMGAGFVTVVDPYNLEETQEAFKAAKEFEGTAVVIAKQPCVISGKRAGI”, the “soluble on expression in E. coli” value was “not soluble”.
In the case of “DKQKALKKIAKCLELGNSANINEAANAIKMAHNLMLKYGLDKDDIEFIKMGKTQSTHLLPAAISSGILRVIRGINTRFGVEAVLLNHKGLKRVEFIGEADRAIFAAFAFDIIYREMNEQTGQFRNSFAGTGTSSLEVTRRVNSFVSGWIEGALEKLPIITPDEDSMNKINSYIDKEFENIDRETFKQQLREAMKNLTEDYETGLKKGRRVSVNRPIHGAQAPKLLK”, the “soluble on expression in E. coli” value is reported as “not soluble”.
For “DLHNMLLTRNQELDVAYQTIRQDLESAGDLMRQLLPVEQQIGATKLSYSYLPCSQLGGDMLGYAALDEQHVAFYVFDVSGHGISSALMSFSIQKTLSRSCGPESVTTDLVEGEYVVSEPNVVVERLNLRYQQTPDSQLYFTIVYAVLNTQTGKLRYCTAGHPKFLWRHQSEATIDMVGDENFIVGALAPMQYKGGEITLEPNDSIWCFSDGVVEARYENEFFSVNRLIANVQSVSGLPFEAQVSSVVESIKRWQVKEELDDDLTLLQLQWFGPNTSTCEGEDD”, the “soluble on expression in E. coli” value was “not soluble”.
In the case of “DLPIADVQGSLDTRHIAIDRVGIKAIRHPVVVADKGGGSQHTVAQFNMYVNLPHNFKGTHMSRFVEILNSHEREISVESFEEILRSMVSRLESDSGHIEMAFPYFINKSAPVSGVKSLLDYEVTFIGEIKHGNQYSFTMKVIVPVTSLCPCSKKISDYGAHNQRSHVTISVRTNSFIWIEDIIRIAEEQASCELYGLLKRPDEKYVTERAYNNPKFVEDIVRDVAEVLNHDDRIDAYIVESENFESIHNHSAYA”, the “soluble on expression in E. coli” value is reported as “not soluble”.
For “DLRFFGDFVLEGDARLGEVAALYGLKLDGIDPGMPLSQFIVQKNRGEPVVGDQIEWNGTIWTVAVMDGNKIQKVGVKFPEGTRPGPGLFL”, the “soluble on expression in E. coli” value was “not soluble”.
With “DLYDDDDKDPTLMKISRGLLKTILEAAKSAHPDEFIALLSGSKDVMDELIFLPFVSGSVSAVIHLDMLPIGMKVFGTVHSHPSPSCRPSEEDLSLFTRFGKYHIIVCYPYDENSWKCYNRKGEEVELEVVEKD” the “soluble on expression in E. coli” value was “soluble”.
For “DNSVDLYFLMGLSGSAQGHLSNVQTLGSDLLKALNEISRSGRIGFGSIVNMTFQHILKLTADSSQFQRELRKQLVSGKLATPKGQLDAVVQVAICLGEIGWRNGTRFLVLVTDNDFHLAKDKTLGTRQNTSDGRCHLDDGMYRSRGEPDYQSVVQLASKLAENNIQPIFVVPSRMVKTYEKLTTFIPKLTIGELSDDSSNVAQLIRNAYSKL”, the “soluble on expression in E. coli” value was “soluble”.
For “DRETAPTIKINQITLRYSANQEPVLSGVSADIESGDCVAVIGPNACGKTSLLLSLLGVVEPQAGFIMVNNKNLKQYDPETFREYAGYCPAEPDLFPGTLADNLRIAKPDATDEELIAALKHAGGESLFIALNSNLNIMLENNASNMLSAVEGSYINLARAFLKKSNFIILDEPLANRNPQARKAFSNTILALKGKATIVFSSHDPELIKLADKVIVLDKGSVVYAGPIPEKNSQEMESSNHE”, the “soluble on expression in E. coli” value was “not soluble”.
In the case of “DSDVEIATIALLDTVQPAHLAPDTKEETVKRWERYSAFAKKTYGLDFPVPYELLETAGEDALLAMMAEFLSTTDATEHGLSAGVLEHQRASFVDNRILDRMDMQRWANVKIPVMLFRAERMHDGAIELEPAYAEIEPDGGWSAIVEDLVIIQLSGDHLAVVDEPEIGKVGVALTNRIEQLQGK”, the “soluble on expression in E. coli” value is reported as “not soluble”.
With “DVQLVESGGGSVQAGGSLRLSCAVSGYKDRNYCMGWFRRAPGKEREGVAVIDSSGRTAYADSVKGRFTISRDVALDTAYLQMNSLKPEDTAMYYCAAGWSSLGSCGTNRNRYNYWGQGTQVTVSSRGRHHHHHH” the “soluble on expression in E. coli” value was “soluble”.
With “DVSGTVCLSALPPEATDTLNLIASDGPFPYSQDGVTFQNRESVLPTQSYGYYHEYTVITPGARTRGTRRIITGEATQEDYYTGDHYATFSLIDQTC” the “soluble on expression in E. coli” value was “soluble”.
With “DYSYLFGQGGTELFGEFAGAANGAVGTINGLRYTHPVGGSYMLVGRYIPADYWSYYRGAFARYSRPGNEWGVMGRAAWELPSDRTVRAFADYYGSFVPRFGRKEKTEALYWMFEGEKRLSALSWSCRIRGTADKRYRRSLAVRLRGRYMFDERWRLMASLQWSRSNSFDRELQTWQAPTGGKSFALRADYSGGKLLRVCSMDAVAFDTDSFADRLYEAVHNPRHHYSSAFFYGRGVRLGVFVRIAPLPQVEVESRIDHLLRRDTDTIGSAGELIRGQARTHLFMTVRYR” the “soluble on expression in E. coli” value was “not soluble”.
For “EAMKIKNQFATWDYEKKLQSMEHDSSIQKQLLATQRAQIEQRLAAQKAALEAERDAAGYHAAAGEADNEGVRQAYDALAQDSARRARDLAETAQRGKSQLDEIVGRLKDLADRSAANIINQGINQTVVVKLEKTGRLHTDQDIAKALEETLNAVKGLEARVEMVEAARAPSALEAAHSQL”, the “soluble on expression in E. coli” value was “not soluble”.
With “EAQIYGYVEKATLIDQNLTLSAKLDTGAKSASLHAVNITEIEKKGIPYLRFTVPTKTGDYSFEGEYVGKVKIKVRSSETNPGLLRTTPIKRPVVLLNIKLGDKVRTIKVNLTNRKRFLYPLLLGRDAIIDFNGAVDPALTFTTKSK” the “soluble on expression in E. coli” value was “not soluble”.
For “ECPVFEPSWAEFRDPLGYIAKIRPIAEKSGICKIRPPADWQPPFAVEVDNFRFTPRIQRLNEL”, the “soluble on expression in E. coli” value was “not soluble”.
For “EDRSVHFDSMSNGQGAASALPIFAEFLKRVYADPKLGYTTEEKFEFPQDFQPCMMDQNVEYFDAGGGEVVEPLPEILVELP”, the “soluble on expression in E. coli” value was “not soluble”.
In the case of “EGDKVTGEVQQVEDKQVVVHINGGKFNGIIPISQLSTHHIENPSEVVKVGDEVEAYVTKIEFDEENDTGAYILSKRQ”, the “soluble on expression in E. coli” value is reported as “not soluble”.
In the case of “EGSENLFITGDNLEALKLLQESYLGKIDMIYIDPPYNTGKDFVYQDNFKKTKKENDLSEGILDEEGDRLVKNEKSNGRYHSDWLTMIYPRLKLARNLLSDSGIIFVSIDENEIANLELLLTEIFGENNLAGTIVWDKRNPKGDSKGVSMQHEYIVAAAKNINIFSEFKEFKRPKKNAEIIL”, the “soluble on expression in E. coli” value is reported as “not soluble”.
In the case of “EHDNTSYICKKIDEDEYVLSARLEIEKVNEMFGLDLPESDDYLTVGGLILNQYQSFPKLHELVRVGRYQFKIIKVTATKIELVRLKVME”, the “soluble on expression in E. coli” value is reported as “not soluble”.
For “EIEEIKITMDVLVASEDVMVTVTKEGYVKRTSLRSYAASNGELPGMKEGDYLLGRYEMNTQDTLLLFTKKGNYLYLPVHQLPDIRWKDNGQHVANLVTVDKDDDILTTLAVKEFSEE”, the “soluble on expression in E. coli” value was “soluble”.
With “EIHHRIKNNLQVICSLLSLEAERFSDEKMLETLKESQNRVASMALIHEELYKGDKNDTLDFAAYLRKLTADLFSSYNLGNDNISLKMDL” the “soluble on expression in E. coli” value was “not soluble”.
With “EISGFGQCLVWVQCSFPNCGKWRRLCGNIDPSVLPDNWSCDQNTDVQYNRCDIPEETWTGLE” the “soluble on expression in E. coli” value was “soluble”.
For “EKDSQSPKIRQKYLRQYPELNSLIPAVVTEVREKEATAALQNGQIIIIPWEGMSWARPALKRGGWVGKSPTKAQQVVAAGDIIYVHPTEKSWQLAQIP”, the “soluble on expression in E. coli” value was “not soluble”.
In the case of “ELLPEIFRQTVEHAPIAISITDLKANILYANRAFRTITGYGSEEVLGKNESILSNGTTPRLVYQALWGRLAQKKPWSGVLVNRRKDKTLYLAELTVAPVLNEAGETIYYLGMHRDTSELH”, the “soluble on expression in E. coli” value is reported as “soluble”.
With “ELQAIHEKVKTEHAALSTEVVHLRQRTEELLRCNEQQAAELETCKEQLFQSNMERKELHNTVMDLRGNIRVFCRIRPPLESEENRMCCTWTYHDESTVELQSIDAQAKSKMGQQIFSFDQVFHPLSSQSDIFEMVSPLIQSALDGYNICIFAYGQTGSGKTYTMDGVPESVGVIPRTVDLLFDSIRGYRNLGWEYEIKATFLEIYNEVLYDLLSNEQKDMEIRMAKNNKNDIYVSNITEETVLDPNHLRHLMHTAKMNRATASTAGNERSSRSHAVTKLELIGRHAEKQEISVGSINLVDLAGSESPKTSTRMTETKNINRSLSELTNVILALLQKQDHIPYRNSKLTHLLMPSLGGNSKTLMFINVSPFQDCFQESVKSLRFAASVNSCKMTKAKRNRYLNNSVANSSTQSNNSGSFDK” the “soluble on expression in E. coli” value was “soluble”.
